Measured values: FireProtDB (doi:10.1073/pnas.0908565107)

B1: Alanine--glyoxylate aminotransferase, P21549 (parent)
chain: MASHKLLVTPPKALLKPLSIPNQLLLGPGPSNLPPRIMAAGGLQMIGSMSKDMYQIMDEIKEGIQYVFQTRNPLTLVISGSGHCALEAALVNVLEPGDSFLVGANGIWGQRAVDIGERIGARVHPMTKDPGGHYTLQEVEEGLAQHKPVLLFLTHGESSTGVLQPLDGFGELCHRYKCLLLVDSVASLGGTPLYMDRQGIDILYSGSQKALNAPPGTSLISFSDKAKKKMYSRKTKPFSFYLDIKWLANFWGCDDQPRMYHHTIPVISLYSLRESLALIAEQGLENSWRQHREAAAYLHGRLQALGLQLFVKDPALRLPTVTTVAVPAGYDWRDIVSYVIDHFDIEIMGGLGPSTGKVLRIGLLGCNATRENVDRVTEALRAALQHCPKKKL

Variants of: B1
Conditions: Homo sapiens; pH 7.4; Thermal; DSC; Potassium phosphate 100 mM; structure 1H0C; whole UniProt chain shown

| Variant | Tm | change of melting temperature, mutant - wild type (higher = more stable) |
| --- | --- | --- |
| G41V | 58.3 °C | -4.1 °C |
